Kd data for 2 molecules are collected here from patent CN114573691A (EIGHT HOSPITALS IN AFFILIATED CITY OF GUANGZHOU MEDICAL; …, dated 2022).

In the assay the target is 新冠病毒SARS-CoV-2原始毒株(WT)S1抗原 (SARS-CoV-2, UniProt P0DTC2 16-685).

B1: 中和抗体YB13-208 (antibody, V domains shown)
V domain 1: QITLKESGPTLVKPTQTLTLTCTFSGLSLSTSGVSVGWIRQPPGKAPEWLALIYWDDDKRYSPSLTSRLSITKDTSKNQVVLTMTNMDPVDTATYYCAHPRYYGDSSGYYWIWGQGTMVTVSS
V domain 2: SYELTQPPSVSVSPGQTARITCSGDALPKQYAYWYQQKPGQAPVVVMYKTSERPSGIPERFSGSSSGTTVTLTISGVQAEDEADYYCQSADSSGFYVFGTGTQVTVL
B1: the affinity, expressed as Kd, was 0.082 nM.

B2: 中和抗体YB9-258 (antibody, V domains shown)
VH: EVQLVESGGGLIQPGGSLRLSCAASGLTVSSNYMHWVRQAPGKGLEWVSVLYAGGSAFYADSVKGRFTISRNNSKNTLYLQMNSLRAEDTAIYYCARGLGDYLDSWGQGTLVTVSS
VL: DIQMTQSPSSVSASVGDRVTITCRASQGIGSWLAWYQQKPGKAPQLLIYAASTLQSGVPPRFSGSGSGTDFTLTITSLQPEDFASYYCQQANSVLALTFGGGTKVEIK
B2: the Kd was 0.0717 nM.
